Results taken from patent US20220251184A1 (Regeneron, published 2022).
Residue numbers refer to the chain shown, from its start. One block for each binder: values may come before it.

Assays:
Assay in all cases: BLI (Octet HTX), mAb captured on Protein A sensor, 100 nM ligand, 25 C
Human BMP12/GDF7 = biological target: T1, Human BMP12/GDF7 (human, UniProt Q7Z4P5 322-450, limits assumed)
T1 sequence (looked up): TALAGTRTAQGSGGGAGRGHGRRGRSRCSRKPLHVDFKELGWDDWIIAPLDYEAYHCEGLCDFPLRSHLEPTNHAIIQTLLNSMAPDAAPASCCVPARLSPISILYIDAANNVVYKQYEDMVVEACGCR
Description: (§1) Binding cross-reactivity of anti-BMP6 monoclonal antibodies to BMP6 family members, (Human: BMP6, BMP5, BMP7, BMP8A, BMP9, BMP10, BMP12, BMP14, BMP3b, Activin A, and GDF3 and mouse: BMP6 and GDF6) was determined using a real-time Bio-Layer Interferometry (BLI) biosensor using Octet HTX instrument. All binding studies were performed in 10 mM HEPES, 150 mM NaCl, 3 mM EDTA, 1 mg/mL BSA, 50 μg/mL Heparin, and 0.05% v/v Surfactant Tween-20, pH 7.4 (HBS-EBHT) buffer at 25° C. with the plate shaking at a speed of 1000 rpm. To assess binding cross-reactivity, Protein A coated Octet biosensor (Pall ForteBio Corp., #18-5010) was first dipped in wells containing […] of anti-BMP6 monoclonal antibodies for 4 minutes followed by submerging in wells containing 100 nM of different BMP6 family members for 4 minutes. The biosensors were washed in HBS-EBHT buffer in between every step of the experiment. At the end of each cycle, the Protein A biosensor was regenerated using three alternate 5 second dips in 10 mM Glycine pH 2.0 and 10 second dip HBS-EBHT buffer. The real-time binding response was monitored during the course of the experiment and the binding response at the end of every step was recorded and tabulated as shown in Tables 8A and 8B.

Human BMP3b = biological target: T2, Human BMP3b (human, UniProt P55107 369-478, limits assumed)
T2 sequence (looked up): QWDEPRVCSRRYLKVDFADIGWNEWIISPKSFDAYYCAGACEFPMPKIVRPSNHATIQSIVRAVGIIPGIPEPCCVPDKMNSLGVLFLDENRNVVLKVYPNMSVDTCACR
Description: as §1

Human GDF3 = biological target: T3, Human GDF3 (human, UniProt Q9NR23 251-364)
T3 sequence (looked up): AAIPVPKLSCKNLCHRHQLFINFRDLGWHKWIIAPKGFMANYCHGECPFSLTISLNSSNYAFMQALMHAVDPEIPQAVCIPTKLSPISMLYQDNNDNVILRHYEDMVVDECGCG
Description: as §1

Human BMP5 = biological target: T4, Human BMP5 (human, UniProt P22003 317-454, limits assumed)
T4 sequence (looked up): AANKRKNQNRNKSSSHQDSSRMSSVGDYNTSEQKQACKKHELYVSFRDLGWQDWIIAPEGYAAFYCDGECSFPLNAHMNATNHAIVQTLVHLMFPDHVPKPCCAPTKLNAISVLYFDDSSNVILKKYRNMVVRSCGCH
Description: as §1

binding response (Human BMP12/GDF7): 0.01 nm | binding response (Human BMP3b): 0.19 nm
B1: H4H17871P (antibody, V domains shown)
VH: EVQLVESGGGLVQPGGSLRLSCAASGFTFNNYAMSWVRQAPGKGLEWVSAISGSGDSTYYADSVKGRFTISRDNSKNTLYLQMNSLRAEDTAVYYCAKRSRSSPFDPWGQGTLVTVSS
VL: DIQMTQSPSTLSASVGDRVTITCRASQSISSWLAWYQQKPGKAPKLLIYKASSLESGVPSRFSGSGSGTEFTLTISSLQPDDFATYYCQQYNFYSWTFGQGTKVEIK
notes: Fully human antibody; also called anti-BMP6 monoclonal antibody; BMP6 antibody of the invention

binding response (Human GDF3): 0.03 nm | binding response (Human BMP5): 0.01 nm
B2: H4H17855P (antibody, V domains shown)
VH: B1 VH with N30S, N31S, D56G, S57R, A61T, I70M, S100P, R101Y, S102N
VL: EIVLTQSPGTLSLSPGEGATLSCRASQSVSSSYLAWYQQKPGQAPRLLIYGASSRATGIPDRFSGSGSGTDFTLTISRLEPEDFVVYYCQHFGGTPFTFGGGTKVEIK
notes: as for B1
